Common to all, as to assay: Biacore off-rate vs wt GC1008, 50 nM
On the technique in general: Surface plasmon resonance follows binding to a sensor surface in real time, without labels.

One assay addresses T1, human TGFβ3 (human, UniProt P10600 301-412).
T1 sequence: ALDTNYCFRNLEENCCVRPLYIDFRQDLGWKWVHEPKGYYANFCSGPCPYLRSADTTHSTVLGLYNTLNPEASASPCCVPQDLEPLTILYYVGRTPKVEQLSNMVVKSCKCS
The source says: (§1) Plasmids encoding either the GC1008 heavy chain or light chain were used as a template in PCR-based mutagenesis reactions. Mutations to the encoding DNA were made to create 155 single amino acid substitutions of the encoded heavy chain amino acid sequence and one single amino acid substitution of the encoded light chain amino acid sequence. A QuikChange® Lightning Site-Directed Mutagenesis kit (Agilent Technologies, Santa Clara Calif.) was used according to the manufacturer's instructions to create DNA mutations using a set of forward and reverse primers, either designed for a specific amino acid or for all 20 amino acids with a degenerate codon (NNK). After sequencing confirmation, identified mutant DNA was paired with a wild-type light or heavy chain DNA for transfection into an Expi293F™ host cell suspension (Life Techonologies Corp., Grand Island, N.Y.). At 4 days post-transfection, conditioned media (1 mL) was harvested and purified using a 1 mL Protein A PhyTip® column (PhyNexus, Inc., San Jose, Calif.) and a PureSpeed™ 12-channel pipette (Rainin Instrument LLC, Oakland, Calif.). Purified variant antibody samples were analyzed in duplicate on a Biacore® 3000 (GE Healthcare) at 50 nM concentrations, using the 100 RU level TGFβ1, 2, and 3 immobilized surfaces. The off-rate (kd) of the variants was divided by the kd of the wild-type control to obtain the fold change in the kd. […] A heat map was generated to visualize the results. Variants that completely lost affinity for TGFβ were shown in red without numbers.

The target of the next assay is T2, human TGFβ1 (human, UniProt P01137 279-390).
T2 construct: also called TGFβ1 homodimer
T2 sequence (P01137 279-390 limits assumed): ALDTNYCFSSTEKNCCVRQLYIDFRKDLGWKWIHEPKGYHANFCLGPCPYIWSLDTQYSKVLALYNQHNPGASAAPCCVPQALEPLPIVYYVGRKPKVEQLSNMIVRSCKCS
Source text: as §1

The target in a further assay is T3, human TGFβ2 (human, UniProt P61812 303-414).
T3 construct: also called TGFβ2 homodimer
T3 sequence: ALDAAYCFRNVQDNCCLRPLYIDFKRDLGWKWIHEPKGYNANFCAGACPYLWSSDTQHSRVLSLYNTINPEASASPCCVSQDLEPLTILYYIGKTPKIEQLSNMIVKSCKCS
Source text: as §1

B1: D56C (antibody, V domains shown)
VH: QVQLVQSGAEVKKPGSSVKVSCKASGYTFSSNVISWVRQAPGQGLEWMGGVIPIVCIANYAQRFKGRVTITADESTSTTYMELSSLRSEDTAVYYCASTLGLVLDAMDYWGQGTLVTVSS
VL: ETVLTQSPGTLSLSPGERATLSCRASQSLGSSYLAWYQQKPGQAPRLLIYGASSRAPGIPDRFSGSGSGTDFTLTISRLEPEDFAVYYCQQYADSPITFGQGTRLEIK
notes: GC1008 IgG4 variant
Take B1: the kd var/kd wt with human TGFβ3 was determined as 0.8; with human TGFβ1, 1.1; with human TGFβ2, 1.3.

B2: I54Y (antibody, V domains shown)
VH: QVQLVQSGAEVKKPGSSVKVSCKASGYTFSSNVISWVRQAPGQGLEWMGGVIPYVDIANYAQRFKGRVTITADESTSTTYMELSSLRSEDTAVYYCASTLGLVLDAMDYWGQGTLVTVSS
VL: ETVLTQSPGTLSLSPGERATLSCRASQSLGSSYLAWYQQKPGQAPRLLIYGASSRAPGIPDRFSGSGSGTDFTLTISRLEPEDFAVYYCQQYADSPITFGQGTRLEIK
notes: GC1008 IgG4 variant
For B2, the kd var/kd wt in the assay with human TGFβ3 is 1.5; with human TGFβ2, 1.3.

B3: S30K (antibody, V domains shown)
VH: QVQLVQSGAEVKKPGSSVKVSCKASGYTFKSNVISWVRQAPGQGLEWMGGVIPIVDIANYAQRFKGRVTITADESTSTTYMELSSLRSEDTAVYYCASTLGLVLDAMDYWGQGTLVTVSS
VL: ETVLTQSPGTLSLSPGERATLSCRASQSLGSSYLAWYQQKPGQAPRLLIYGASSRAPGIPDRFSGSGSGTDFTLTISRLEPEDFAVYYCQQYADSPITFGQGTRLEIK
notes: GC1008 IgG4 variant
As for B3, the kd var/kd wt with human TGFβ3 turned out to be 1.6; in the assay with human TGFβ2, 1.5.

B4: V55L (antibody, V domains shown)
VH: QVQLVQSGAEVKKPGSSVKVSCKASGYTFSSNVISWVRQAPGQGLEWMGGVIPILDIANYAQRFKGRVTITADESTSTTYMELSSLRSEDTAVYYCASTLGLVLDAMDYWGQGTLVTVSS
VL: ETVLTQSPGTLSLSPGERATLSCRASQSLGSSYLAWYQQKPGQAPRLLIYGASSRAPGIPDRFSGSGSGTDFTLTISRLEPEDFAVYYCQQYADSPITFGQGTRLEIK
notes: GC1008 IgG4 variant
With B4, the kd var/kd wt with human TGFβ3 turned out to be 1.8; with human TGFβ2, 1.6.

B5: D56F (antibody, V domains shown)
VH: QVQLVQSGAEVKKPGSSVKVSCKASGYTFSSNVISWVRQAPGQGLEWMGGVIPIVFIANYAQRFKGRVTITADESTSTTYMELSSLRSEDTAVYYCASTLGLVLDAMDYWGQGTLVTVSS
VL: ETVLTQSPGTLSLSPGERATLSCRASQSLGSSYLAWYQQKPGQAPRLLIYGASSRAPGIPDRFSGSGSGTDFTLTISRLEPEDFAVYYCQQYADSPITFGQGTRLEIK
notes: GC1008 IgG4 variant
As for B5, the kd var/kd wt with human TGFβ3 amounted to 1.5; in the assay with human TGFβ1, 2.3; with human TGFβ2, 1.5.

B6: D56K (antibody, V domains shown)
VH: QVQLVQSGAEVKKPGSSVKVSCKASGYTFSSNVISWVRQAPGQGLEWMGGVIPIVKIANYAQRFKGRVTITADESTSTTYMELSSLRSEDTAVYYCASTLGLVLDAMDYWGQGTLVTVSS
VL: ETVLTQSPGTLSLSPGERATLSCRASQSLGSSYLAWYQQKPGQAPRLLIYGASSRAPGIPDRFSGSGSGTDFTLTISRLEPEDFAVYYCQQYADSPITFGQGTRLEIK
notes: GC1008 IgG4 variant
Take B6: the figures for the kd var/kd wt with human TGFβ3, in the assay with human TGFβ1 and with human TGFβ2 were 0.7, 1.1 and 1.3, respectively.

B7: D56G (antibody, V domains shown)
VH: QVQLVQSGAEVKKPGSSVKVSCKASGYTFSSNVISWVRQAPGQGLEWMGGVIPIVGIANYAQRFKGRVTITADESTSTTYMELSSLRSEDTAVYYCASTLGLVLDAMDYWGQGTLVTVSS
VL: ETVLTQSPGTLSLSPGERATLSCRASQSLGSSYLAWYQQKPGQAPRLLIYGASSRAPGIPDRFSGSGSGTDFTLTISRLEPEDFAVYYCQQYADSPITFGQGTRLEIK
notes: GC1008 IgG4 variant
With B7, the kd var/kd wt was determined as 1.1 in the assay with human TGFβ3, 1.4 with human TGFβ1 and 1.5 with human TGFβ2.

B8: D56E (antibody, V domains shown)
VH: QVQLVQSGAEVKKPGSSVKVSCKASGYTFSSNVISWVRQAPGQGLEWMGGVIPIVEIANYAQRFKGRVTITADESTSTTYMELSSLRSEDTAVYYCASTLGLVLDAMDYWGQGTLVTVSS
VL: ETVLTQSPGTLSLSPGERATLSCRASQSLGSSYLAWYQQKPGQAPRLLIYGASSRAPGIPDRFSGSGSGTDFTLTISRLEPEDFAVYYCQQYADSPITFGQGTRLEIK
notes: GC1008 IgG4 variant
For the molecule B8, the kd var/kd wt with human TGFβ3 was determined as 0.9; with human TGFβ1, 1; with human TGFβ2, 1.2.

B9: D56H (antibody, V domains shown)
VH: QVQLVQSGAEVKKPGSSVKVSCKASGYTFSSNVISWVRQAPGQGLEWMGGVIPIVHIANYAQRFKGRVTITADESTSTTYMELSSLRSEDTAVYYCASTLGLVLDAMDYWGQGTLVTVSS
VL: ETVLTQSPGTLSLSPGERATLSCRASQSLGSSYLAWYQQKPGQAPRLLIYGASSRAPGIPDRFSGSGSGTDFTLTISRLEPEDFAVYYCQQYADSPITFGQGTRLEIK
notes: GC1008 IgG4 variant
For the molecule B9, the values for the kd var/kd wt in the assay with human TGFβ3, with human TGFβ1 and with human TGFβ2 were 0.7, 1.1 and 1.3, respectively.

B10: D56L (antibody, V domains shown)
VH: QVQLVQSGAEVKKPGSSVKVSCKASGYTFSSNVISWVRQAPGQGLEWMGGVIPIVLIANYAQRFKGRVTITADESTSTTYMELSSLRSEDTAVYYCASTLGLVLDAMDYWGQGTLVTVSS
VL: ETVLTQSPGTLSLSPGERATLSCRASQSLGSSYLAWYQQKPGQAPRLLIYGASSRAPGIPDRFSGSGSGTDFTLTISRLEPEDFAVYYCQQYADSPITFGQGTRLEIK
notes: GC1008 IgG4 variant
B10: the values for the kd var/kd wt in the assay with human TGFβ3, with human TGFβ1 and with human TGFβ2 were 1, 1.3 and 1.4, respectively.

B11: V55I (antibody, V domains shown)
VH: QVQLVQSGAEVKKPGSSVKVSCKASGYTFSSNVISWVRQAPGQGLEWMGGVIPIIDIANYAQRFKGRVTITADESTSTTYMELSSLRSEDTAVYYCASTLGLVLDAMDYWGQGTLVTVSS
VL: ETVLTQSPGTLSLSPGERATLSCRASQSLGSSYLAWYQQKPGQAPRLLIYGASSRAPGIPDRFSGSGSGTDFTLTISRLEPEDFAVYYCQQYADSPITFGQGTRLEIK
notes: GC1008 IgG4 variant
Take B11: the kd var/kd wt with human TGFβ3 is 1.8; with human TGFβ2 it was 1.7.

B12: D56I (antibody, V domains shown)
VH: QVQLVQSGAEVKKPGSSVKVSCKASGYTFSSNVISWVRQAPGQGLEWMGGVIPIVIIANYAQRFKGRVTITADESTSTTYMELSSLRSEDTAVYYCASTLGLVLDAMDYWGQGTLVTVSS
VL: ETVLTQSPGTLSLSPGERATLSCRASQSLGSSYLAWYQQKPGQAPRLLIYGASSRAPGIPDRFSGSGSGTDFTLTISRLEPEDFAVYYCQQYADSPITFGQGTRLEIK
notes: GC1008 IgG4 variant
B12: the kd var/kd wt came to 1.4 with human TGFβ3, 1.6 in the assay with human TGFβ1 and 1.5 in the assay with human TGFβ2.

B13: V55A (antibody, V domains shown)
VH: QVQLVQSGAEVKKPGSSVKVSCKASGYTFSSNVISWVRQAPGQGLEWMGGVIPIADIANYAQRFKGRVTITADESTSTTYMELSSLRSEDTAVYYCASTLGLVLDAMDYWGQGTLVTVSS
VL: ETVLTQSPGTLSLSPGERATLSCRASQSLGSSYLAWYQQKPGQAPRLLIYGASSRAPGIPDRFSGSGSGTDFTLTISRLEPEDFAVYYCQQYADSPITFGQGTRLEIK
notes: GC1008 IgG4 variant
As to B13, the kd var/kd wt in the assay with human TGFβ3 is 2; with human TGFβ2, 1.7.

B14: I52F (antibody, V domains shown)
VH: QVQLVQSGAEVKKPGSSVKVSCKASGYTFSSNVISWVRQAPGQGLEWMGGVFPIVDIANYAQRFKGRVTITADESTSTTYMELSSLRSEDTAVYYCASTLGLVLDAMDYWGQGTLVTVSS
VL: ETVLTQSPGTLSLSPGERATLSCRASQSLGSSYLAWYQQKPGQAPRLLIYGASSRAPGIPDRFSGSGSGTDFTLTISRLEPEDFAVYYCQQYADSPITFGQGTRLEIK
notes: GC1008 IgG4 variant
B14: the kd var/kd wt in the assay with human TGFβ3 stood at 2; with human TGFβ2, 1.9.

B15: I52T (antibody, V domains shown)
VH: QVQLVQSGAEVKKPGSSVKVSCKASGYTFSSNVISWVRQAPGQGLEWMGGVTPIVDIANYAQRFKGRVTITADESTSTTYMELSSLRSEDTAVYYCASTLGLVLDAMDYWGQGTLVTVSS
VL: ETVLTQSPGTLSLSPGERATLSCRASQSLGSSYLAWYQQKPGQAPRLLIYGASSRAPGIPDRFSGSGSGTDFTLTISRLEPEDFAVYYCQQYADSPITFGQGTRLEIK
notes: GC1008 IgG4 variant
Turning to B15, the kd var/kd wt was 2.1 with human TGFβ3 and 1.9 with human TGFβ2.

B16: V55W (antibody, V domains shown)
VH: QVQLVQSGAEVKKPGSSVKVSCKASGYTFSSNVISWVRQAPGQGLEWMGGVIPIWDIANYAQRFKGRVTITADESTSTTYMELSSLRSEDTAVYYCASTLGLVLDAMDYWGQGTLVTVSS
VL: ETVLTQSPGTLSLSPGERATLSCRASQSLGSSYLAWYQQKPGQAPRLLIYGASSRAPGIPDRFSGSGSGTDFTLTISRLEPEDFAVYYCQQYADSPITFGQGTRLEIK
notes: GC1008 IgG4 variant
Turning to B16, the kd var/kd wt in the assay with human TGFβ3 came to 2.1; with human TGFβ2 it was 1.3.

Source of the values: patent publication US20170342144A1 (Sanofi, published 2017).
